Target: Protein Serine Kinase H1 (PSKH1), recombinant full-length, wild type (human) (UniProt P11801)
Sequence (P11801 whole entry): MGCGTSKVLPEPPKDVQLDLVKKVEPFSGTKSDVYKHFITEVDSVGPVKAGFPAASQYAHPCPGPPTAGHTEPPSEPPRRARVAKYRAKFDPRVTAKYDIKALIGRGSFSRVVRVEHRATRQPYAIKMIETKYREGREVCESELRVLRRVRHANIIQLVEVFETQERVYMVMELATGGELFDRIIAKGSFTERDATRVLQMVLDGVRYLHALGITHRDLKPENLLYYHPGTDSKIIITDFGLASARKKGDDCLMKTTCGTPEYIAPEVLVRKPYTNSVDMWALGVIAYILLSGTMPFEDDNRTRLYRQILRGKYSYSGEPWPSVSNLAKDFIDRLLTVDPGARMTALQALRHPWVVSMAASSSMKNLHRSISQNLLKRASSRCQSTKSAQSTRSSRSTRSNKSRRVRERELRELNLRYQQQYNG

half-maximal activation (EC50) of HA-tagged PSKH1 (10 ng) kinase activity, titration of CaM 0-1,000 nM, radiometric assay: 58.7 nM
radiometric kinase assay (ADR1 peptide phosphorylation) of HA-tagged PSKH1 (10 ng) with Ca2+-CaM (1 uM): 10 fold
Substance: Calmodulin, recombinant (His6-Calmodulin) (from UniProt P0DP23 1-149) (natural protein)

Reference: article PMC11873932
